The target of this test is unmodified (unphosphorylated) recombinant tau, human 1N4R isoform (human). Nature of the test: thioflavin S fluorescence aggregation assay.

Net increase of ThS fluorescence (9 μM tau) (units of ThS fluorescence) and net increase of ThS fluorescence (18 μM tau) (units of ThS fluorescence) data for one substance are collected here from article PMC7530023.

As to “unmodified (unphosphorylated) recombinant tau, human 1N4R isoform (natural protein)”, the net increase of ThS fluorescence (9 μM tau) (units of ThS fluorescence) was determined as 41 and the net increase of ThS fluorescence (18 μM tau) (units of ThS fluorescence) was 54.
